Measured values published in the supplement of paper PMC11316812.
± gives the standard deviation of the averaged measurements.

Key:
hTERT-HMEC = experiment: percentage of EdU-negative (G0-arrested) nuclei per well, 72 h; higher = more G0 arrest; conditions: reference: sequence is the full UniProt precursor, the tested protein was the secreted form or ectodomain
MCF7 = experiment: as above; conditions: reference: sequence is the full UniProt precursor, the tested protein was the secreted form or ectodomain
[1] = protein concentration 0.00742857 µM
[2] = protein concentration 0.0742857 µM
[3] = protein concentration 0.0225 µM
[4] = protein concentration 0.01422 µM
[5] = protein concentration 0.1422 µM
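Further: secreted proteins added to cultured cells, EdU pulse at the end, nuclei found by Hoechst imaging, EdU status from nuclear versus surrounding ring intensity ratio, PBS as neutral control.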

| Sequence | percentage of EdU-negative (hTERT-HMEC; [3]) | percentage of EdU-negative (hTERT-HMEC; protein concentration 0.225 µM) | percentage of EdU-negative (MCF7; [3]) | percentage of EdU-negative (MCF7; protein concentration 0.225 µM) | other results |
| --- | --- | --- | --- | --- | --- |
| MGALARALPSILLALLLTSTPEALGANPGLVARITDKGLQYAAQEGLLALQSELLRITLPDFTGDLRIPHVGRGRYEFHSLNIHSCELLHSALRPVPGQGLSLSISDSSIRVQGRWKVRKSFFKLQGSFDVSVKGISISVNLLLGSESSGRPTVTASSCSSDIADVEVDMSGDLGWLLNLFHNQIESKFQKVLESRICEMIQKSVSSDLQPYLQTLPVTTEIDSFADIDYSLVEAPRATAQMLEVMFKGEIFHRNHRSPVTLLAAVMSLPEEHNKMVYFAISDYVFNTASLVYHEEGYLNFSITDDMIPPDSNIRLTTKSFRPFVPRLARLYPNMNLELQGSVPSAPLLNFSPGNLSVDPYMEIDAFVLLPSSSKEPVFRLSVATNVSATLTFNTSKITGFLKPGKVKVELKESKVGLFNAELLEALLNYYILNTFYPKFNDKLAEGFPLPLLKRVQLYDLGLQIHKDFLFLGANVQYMRV |  |  |  |  | percentage of EdU-negative (hTERT-HMEC; [1]): 5.11 ± 0.45%; percentage of EdU-negative (hTERT-HMEC; [2]): 7.684 ± 0.069%; percentage of EdU-negative (MCF7; [1]): 23.1 ± 3.5%; percentage of EdU-negative (MCF7; [2]): 26.4 ± 0.82% |
| MGALRPTLLPPSLPLLLLLMLGMGCWAREVLVPEGPLYRVAGTAVSISCNVTGYEGPAQQNFEWFLYRPEAPDTALGIVSTKDTQFSYAVFKSRVVAGEVQVQRLQGDAVVLKIARLQAQDAGIYECHTPSTDTRYLGSYSGKVELRVLPDVLQVSAAPPGPRGRQAPTSPPRMTVHEGQELALGCLARTSTQKHTHLAVSFGRSVPEAPVGRSTLQEVVGIRSDLAVEAGAPYAERLAAGELRLGKEGTDRYRMVVGGAQAGDAGTYHCTAAEWIQDPDGSWAQIAEKRAVLAHVDVQTLSSQLAVTVGPGERRIGPGEPLELLCNVSGALPPAGRHAAYSVGWEMAPAGAPGPGRLVAQLDTEGVGSLGPGYEGRHIAMEKVASRTYRLRLEAARPGDAGTYRCLAKAYVRGSGTRLREAASARSRPLPVHVREEGVVLEAVAWLAGGTVYRGETASLLCNISVRGGPPGLRLAASWWVERPEDGELSSVPAQLVGGVGQDGVAELGVRPGGGPVSVELVGPRSHRLRLHSLGPEDEGVYHCAPSAWVQHADYSWYQAGSARSGPVTVYPYMHALDTLFVPLLVGTGVALVTGATVLGTITCCFMKRLRKR [Q969P0] | 5.09 ± 0.17% | 5.05 ± 0.19% | 25 ± 1.3% | 26.5 ± 0.91% |  |
| MGAPACALALCVAVAIVAGASSESLGTEQRVVGRAAEVPGPEPGQQEQLVFGSGDAVELSCPPPGGGPMGPTVWVKDGTGLVPSERVLVGPQRLQVLNASHEDSGAYSCRQRLTQRVLCHFSVRVTDAPSSGDDEDGEDEAEDTGVDTGAPYWTRPERMDKKLLAVPAANTVRFRCPAAGNPTPSISWLKNGREFRGEHRIGGIKLRHQQWSLVMESVVPSDRGNYTCVVENKFGSIRQTYTLDVLERSPHRPILQAGLPANQTAVLGSDVEFHCKVYSDAQPHIQWLKHVEVNGSKVGPDGTPYVTVLKTAGANTTDKELEVLSLHNVTFEDAGEYTCLAGNSIGFSHHSAWLVVLPAEEELVEADEAGSVYAGILSYGVGFFLFILVVAAVTLCRLRSPPKKGLGSPTVHKISRFPLKRQVSLESNASMSSNTPLVRIARLSSGEGPTLANVSELELPADPKWELSRARLTLGKPLGEGCFGQVVMAEAIGIDKDRAAKPVTVAVKMLKDDATDKDLSDLVSEMEMMKMIGKHKNIINLLGACTQGGPLYVLVEYAAKGNLREFLRARRPPGLDYSFDTCKPPEEQLTFKDLVSCAYQVARGMEYLASQKCIHRDLAARNVLVTEDNVMKIADFGLARDVHNLDYYKKTTNGRLPVKWMAPEALFDRVYTHQSDVWSFGVLLWEIFTLGGSPYPGIPVEELFKLLKEGHRMDKPANCTHDLYMIMRECWHAAPSQRPTFKQLVEDLDRVLTVTSTDEYLDLSAPFEQYSPGGQDTPSSSSSGDDSVFAHDLLPPAPPSSGGSRT |  |  |  |  | percentage of EdU-negative (hTERT-HMEC; [4]): 5.58 ± 0.063%; percentage of EdU-negative (hTERT-HMEC; [5]): 5.64 ± 0.3%; percentage of EdU-negative (MCF7; [4]): 27.1 ± 3.1%; percentage of EdU-negative (MCF7; [5]): 25.5 ± 3.1% |
| MGAYARASGVCARGCLDSAGPWTMSRALRPPLPPLCFFLLLLAAAGARAGGYETCPTVQPNMLNVHLLPHTHDDVGWLKTVDQYFYGIKNDIQHAGVQYILDSVISALLADPTRRFIYVEIAFFSRWWHQQTNATQEVVRDLVRQGRLEFANGGWVMNDEAATHYGAIVDQMTLGLRFLEDTFGNDGRPRVAWHIDPFGHSREQASLFAQMGFDGFFFGRLDYQDKWVRMQKLEMEQVWRASTSLKPPTADLFTGVLPNGYNPPRNLCWDVLCVDQPLVEDPRSPEYNAKELVDYFLNVATAQGRYYRTNHTVMTMGSDFQYENANMWFKNLDKLIRLVNAQQAKGSSVHVLYSTPACYLWELNKANLTWSVKHDDFFPYADGPHQFWTGYFSSRPALKRYERLSYNFLQVCNQLEALVGLAANVGPYGSGDSAPLNEAMAVLQHHDAVSGTSRQHVANDYARQLAAGWGPCEVLLSNALARLRGFKDHFTFCQQLNISICPLSQTAARFQVIVYNPLGRKVNWMVRLPVSEGVFVVKDPNGRTVPSDVVIFPSSDSQAHPPELLFSASLPALGFSTYSVAQVPRWKPQARAPQPIPRRSWSPALTIENEHIRATFDPDTGLLMEIMNMNQQLLLPVRQTFFWYNASIGDNESDQASGAYIFRPNQQKPLPVSRWAQIHLVKTPLVQEVHQNFSAWCSQVVRLYPGQRHLELEWSVGPIPVGDTWGKEVISRFDTPLETKGRFYTDSNGREILERRRDYRPTWKLNQTEPVAGNYYPVNTRIYITDGNMQLTVLTDRSQGGSSLRDGSLELMVHRRLLKDDGRGVSEPLMENGSGAWVRGRHLVLLDTAQAAAAGHRLLAEQEVLAPQVVLAPGGGAAYNLGAPPRTQFSGLRRDLPPSVHLLTLASWGPEMVLLRLEHQFAVGEDSGRNLSAPVTLNLRDLFSTFTITRLQETTLVANQLREAASRLKWTTNTGPTPHQTPYQLDPANITLEPMEIRTFLASVQWKEVDG | 4.43 ± 0.26% | 5.51 ± 0.44% | 24.7 ± 1.5% | 24.7 ± 1.2% |  |
| MGCLLFLLLWALLQAWGSAEVPQRLFPLRCLQISSFANSSWTRTDGLAWLGELQTHSWSNDSDTVRSLKPWSQGTFSDQQWETLQHIFRVYRSSFTRDVKEFAKMLRLSYPLELQVSAGCEVHPGNASNNFFHVAFQGKDILSFQGTSWEPTQEAPLWVNLAIQVLNQDKWTRETVQWLLNGTCPQFVSGLLESGKSELKKQVKPKAWLSRGPSPGPGRLLLVCHVSGFYPKPVWVKWMRGEQEQQGTQPGDILPNADETWYLRATLDVVAGEAAGLSCRVKHSSLEGQDIVLYWGGSYTSMGLIALAVLACLLFLLIVGFTSRFKRQTSYQGVL | 4.97 ± 0.24% | 5.04 ± 0.17% | 23.9 ± 2.6% | 27.61 ± 0.11% |  |
| MGCRAASGLLPGVAVVLLLLLQSTQSVYIQYQGFRVQLESMKKLSDLEAQWAPSPRLQAQSLLPAVCHHPALPQDLQPVCASQEASSIFKTLRTIANDDCELCVNVACTGCL | 4.91 ± 1.5% | 9.77 ± 1.3% | 27.3 ± 2.2% | 27.8 ± 1.8% |  |
| MGCWGQLLVWFGAAGAILCSSPGSQETFLRSSPLPLASPSPRDPKVSAPPSILEPASPLNSPGTEGSWLFSTCGASGRHGPTQTQCDGAYAGTSVVVTVGAAGQLRGVQLWRVPGPGQYLISAYGAAGGKGAKNHLSRAHGVFVSAIFSLGLGESLYILVGQQGEDACPGGSPESQLVCLGESRAVEEHAAMDGSEGVPGSRRWAGGGGGGGGATYVFRVRAGELEPLLVAAGGGGRAYLRPRDRGRTQASPEKLENRSEAPGSGGRGGAAGGGGGWTSRAPSPQAGRSLQEGAEGGQGCSEAWATLGWAAAGGFGGGGGACTAGGGGGGYRGGDASETDNLWADGEDGVSFIHPSSELFLQPLAVTENHGEVEIRRHLNCSHCPLRDCQWQAELQLAECLCPEGMELAVDNVTCMDLHKPPGPLVLMVAVVATSTLSLLMVCGVLILVKQKKWQGLQEMRLPSPELELSKLRTSAIRTAPNPYYCQVGLGPAQSWPLPPGVTEVSPANVTLLRALGHGAFGEVYEGLVIGLPGDSSPLQVAIKTLPELCSPQDELDFLMEALIISKFRHQNIVRCVGLSLRATPRLILLELMSGGDMKSFLRHSRPHLGQPSPLVMRDLLQLAQDIAQGCHYLEENHFIHRDIAARNCLLSCAGPSRVAKIGDFGMARDIYRASYYRRGDRALLPVKWMPPEAFLEGIFTSKTDSWSFGVLLWEIFSLGYMPYPGRTNQEVLDFVVGGGRMDPPRGCPGPVYRIMTQCWQHEPELRPSFASILERLQYCTQDPDVLNSLLPMELGPTPEEEGTSGLGNRSLECLRPPQPQELSPEKLKSWGGSPLGPWLSSGLKPLKSRGLQPQNLWNPTYRS | 5.75 ± 1.3% | 10.5 ± 0.56% | 26.78 ± 0.18% | 28.3 ± 2.3% |  |
| MGFNLTFHLSYKFRLLLLLTLCLTVVGWATSNYFVGAIQEIPKAKEFMANFHKTLILGKGKTLTNEASTKKVELDNCPSVSPYLRGQSKLIFKPDLTLEEVQAENPKVSRGRYRPQECKALQRVAILVPHRNREKHLMYLLEHLHPFLQRQQLDYGIYVIHQAEGKKFNRAKLLNVGYLEALKEENWDCFIFHDVDLVPENDFNLYKCEEHPKHLVVGRNSTGYRLRYSGYFGGVTALSREQFFKVNGFSNNYWGWGGEDDDLRLRVELQRMKISRPLPEVGKYTMVFHTRDKGNEVNAERMKLLHQVSRVWRTDGLSSCSYKLVSVEHNPLYINITVDFWFGA | 5.14 ± 0.69% | 6.72 ± 0.53% | 25.1 ± 1.2% | 27.9 ± 0.9% |  |
